Patent US20230295345A1 (published 2023)
Like-named read-outs stand apart in the source and are kept apart here.

T1: mouse TMPRSS6 expressed on HEK293T cells (MoTMPRSS6-(His)6) (UniProt Q9DBI0 1-811)
T1 chain: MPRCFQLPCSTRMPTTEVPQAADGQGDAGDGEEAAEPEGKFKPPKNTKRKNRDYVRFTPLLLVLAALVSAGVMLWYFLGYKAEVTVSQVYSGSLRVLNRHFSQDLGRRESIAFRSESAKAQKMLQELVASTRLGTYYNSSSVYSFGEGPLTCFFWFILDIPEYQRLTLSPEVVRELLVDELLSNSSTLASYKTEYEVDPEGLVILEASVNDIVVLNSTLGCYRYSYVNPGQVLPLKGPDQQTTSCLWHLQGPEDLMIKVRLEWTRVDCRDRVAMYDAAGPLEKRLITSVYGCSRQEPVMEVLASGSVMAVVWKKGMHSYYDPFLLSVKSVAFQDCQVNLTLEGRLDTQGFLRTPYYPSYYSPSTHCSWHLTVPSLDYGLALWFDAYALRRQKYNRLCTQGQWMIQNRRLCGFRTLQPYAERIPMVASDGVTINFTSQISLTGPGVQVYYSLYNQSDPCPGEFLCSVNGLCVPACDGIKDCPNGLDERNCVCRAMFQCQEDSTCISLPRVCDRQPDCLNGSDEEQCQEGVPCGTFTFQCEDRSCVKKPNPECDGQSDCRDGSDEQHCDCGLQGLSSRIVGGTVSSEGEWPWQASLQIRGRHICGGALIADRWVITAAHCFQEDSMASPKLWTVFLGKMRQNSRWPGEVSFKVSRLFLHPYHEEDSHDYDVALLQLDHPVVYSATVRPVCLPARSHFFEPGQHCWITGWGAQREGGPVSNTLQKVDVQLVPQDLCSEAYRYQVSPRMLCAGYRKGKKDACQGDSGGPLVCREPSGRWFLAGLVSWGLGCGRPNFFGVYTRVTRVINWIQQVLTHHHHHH

T2: cynomolgus monkey TMPRSS6 expressed on HEK293T cells (CynoTMPRSS6-(His)6)
T2 chain: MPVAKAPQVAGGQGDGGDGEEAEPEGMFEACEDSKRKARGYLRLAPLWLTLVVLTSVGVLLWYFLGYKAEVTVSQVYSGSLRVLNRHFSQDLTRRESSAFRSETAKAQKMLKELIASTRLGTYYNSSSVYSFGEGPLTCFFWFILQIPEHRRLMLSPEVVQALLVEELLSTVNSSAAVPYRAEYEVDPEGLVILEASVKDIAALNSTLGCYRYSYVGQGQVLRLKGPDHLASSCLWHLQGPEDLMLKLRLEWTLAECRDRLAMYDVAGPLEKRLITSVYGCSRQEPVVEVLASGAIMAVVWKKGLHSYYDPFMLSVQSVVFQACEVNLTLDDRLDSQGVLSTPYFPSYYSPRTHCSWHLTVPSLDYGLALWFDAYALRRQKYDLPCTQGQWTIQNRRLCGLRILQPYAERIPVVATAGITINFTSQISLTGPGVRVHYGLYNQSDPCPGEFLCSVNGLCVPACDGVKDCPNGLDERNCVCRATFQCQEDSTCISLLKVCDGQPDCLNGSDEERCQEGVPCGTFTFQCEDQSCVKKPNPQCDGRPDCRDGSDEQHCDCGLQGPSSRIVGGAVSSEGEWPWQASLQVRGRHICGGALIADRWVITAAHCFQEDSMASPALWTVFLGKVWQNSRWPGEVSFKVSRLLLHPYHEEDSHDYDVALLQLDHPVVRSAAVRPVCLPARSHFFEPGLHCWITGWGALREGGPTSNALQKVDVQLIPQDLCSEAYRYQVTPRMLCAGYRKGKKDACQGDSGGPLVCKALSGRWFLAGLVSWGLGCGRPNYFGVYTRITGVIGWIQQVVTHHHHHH

T3: human TMPRSS6 (matriptase-2) expressed on HEK293T cells (HuTMPRSS6-(His)6) (UniProt Q8IU80 10-811)
T3 chain: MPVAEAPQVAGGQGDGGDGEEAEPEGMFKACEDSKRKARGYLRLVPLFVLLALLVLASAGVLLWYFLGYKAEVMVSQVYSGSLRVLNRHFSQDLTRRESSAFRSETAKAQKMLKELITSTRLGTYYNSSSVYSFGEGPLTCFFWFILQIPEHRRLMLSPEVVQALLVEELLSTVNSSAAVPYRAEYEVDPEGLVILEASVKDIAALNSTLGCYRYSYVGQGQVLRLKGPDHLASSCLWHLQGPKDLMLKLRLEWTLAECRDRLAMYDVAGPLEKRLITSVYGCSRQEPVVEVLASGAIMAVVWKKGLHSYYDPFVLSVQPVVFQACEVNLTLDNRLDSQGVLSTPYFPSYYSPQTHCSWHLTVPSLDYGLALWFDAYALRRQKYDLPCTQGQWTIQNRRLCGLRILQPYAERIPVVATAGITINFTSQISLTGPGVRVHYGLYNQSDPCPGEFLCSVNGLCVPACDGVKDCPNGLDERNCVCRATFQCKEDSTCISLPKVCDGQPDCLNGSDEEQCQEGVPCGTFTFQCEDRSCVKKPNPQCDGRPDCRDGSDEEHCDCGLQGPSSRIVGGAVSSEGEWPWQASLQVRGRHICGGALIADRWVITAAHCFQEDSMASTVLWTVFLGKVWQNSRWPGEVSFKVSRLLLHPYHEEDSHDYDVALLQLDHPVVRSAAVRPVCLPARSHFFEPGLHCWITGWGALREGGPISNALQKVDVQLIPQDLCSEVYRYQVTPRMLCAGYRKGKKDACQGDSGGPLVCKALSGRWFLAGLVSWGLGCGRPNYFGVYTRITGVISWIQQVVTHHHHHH


Legend:
[1] = target: T1, mouse TMPRSS6 expressed on HEK293T …; test: cell surface ELISA
[2] = target: T2, cynomolgus monkey TMPRSS6 expressed on …; test: cell surface ELISA
[3] = target: T3, human TMPRSS6 (matriptase-2) expressed …; test: FACS
[4] = target: T1, mouse TMPRSS6 expressed on HEK293T …; test: cell surface ELISA
[5] = target: T2, cynomolgus monkey TMPRSS6 expressed on …; test: cell surface ELISA
[6] = target: T3, human TMPRSS6 (matriptase-2) expressed …; test: cell surface ELISA

Row | Binder | EC50 [1] | EC50 [2] | EC50 [3] | EC50 [4] | EC50 [5] | EC50 [6]
1 | hzMWTx-001Var anti-TMPRSS6 antibody (antibody, V domains shown) VH: EVQLVQSGAEVKKPGASVKVSCKASGYTFTSYWITWVRQAPGQRLEWIGNIYPGSGSTYYNEKFKSKATITRDTSSRTAYMELSSLRSEDTAVYYCAPYDADYAMDYWGQGTLVTVSS VL: DIQMTQSPSSLSASVGDRVTITCKASQDISNYLSWFQQKPGKAPKLLIYRANRLVEGVPSRFSGSGSGTDFTLTISSLQPEDFATYFCLQYDEFPLTFGGGTKVEIKR | 0.03 µg/mL | 0.003 µg/mL |  |  |  | 
2 | hzMWTx-003Var anti-TMPRSS6 antibody (antibody, V domains shown) VH: QVQLVQSGAEVKKPGASVKVSCKASGFNIEDYYMHWVRQAPGQRLEWMGRIDPEDAETTYSPKFQGRVTIIPDTSANTAYMELSSLRSEDTAVYYCARSIYLDPMDYWGQGTLVTVSS VL: DIQMTQSPKSLSASVGDRVTITCRASQDVTTALAWYQQKPGQSPKLLIYWATTRHSGVPSRFSGSGSGTDFTLTISSLQPEDFATYYCQQHYSTPYTFGQGTKLEIKR | 0.31 µg/mL | 0.03 µg/mL |  |  |  | 
3 | hzMWTx-002Var anti-TMPRSS6 antibody (antibody, V domains shown) VH: EVQLVQSGAEVKKPGASVKVSCKASGFNIKDYYIHWVRQATGQGLEWMGRIDPEDAESEYAPKFQGRVTITADTSTDTAYMELSSLRSEDTAVYYCTRGDSMMVTYFDYWGQGTLVTVSS VL: DIQMTQSPSSLSASVGDRVTITCKASQDVSTAVAWYQQKPGKAPKLLIYWAFTRHTGVPSRFSGSGSGTDYALTISSLQPEDFATYYCQQHYRSPWTFGGGTKVEIKR |  | 0.06 µg/mL |  |  |  | 
4 | MWTx-003 anti-TMPRSS6 antibody (antibody, V domains shown) VH: EVQLQQSGAELVKPGASVKLSCTASGFNIEDYYIHWVKERTEQGLEWIGRIDPEDGETTYAPQFQGKATIIPDTSSNTAYMQLSSLTSEDAAVYYCARSIYLDPMDYWGQGTSVTVSS VL: DIVMTQSHKFMSTSVGDRVSITCKASQDVTTAVAWYQQKPGQSPKILIYWATTRHTGVPDRFTGSISGTTYILTISSVQAEDLALYYCQQHYSTPYTFGGGTKLEIKR |  |  | 0.2 µg/mL | 0.07 µg/mL | 0.09 µg/mL | 0.05 µg/mL
5 | MWTx-002 anti-TMPRSS6 antibody (antibody, V domains shown) VH: EVQLQQSGAELVKPGASVKLSCTASGFNIKDYYIHWVKERTEQGLEWFGRIDPEDGESEYAPKFQGKATLTADTSSNTAYLQLSSLTSEDTAVYYCTRGDSMMVTYFDYWGQGTTLTVSS VL: DIVMTQSHKFMSTSVGDRVSITCKASQDVSTAVAWYQQKPGQSPKLLIYWAFTRHTGVPDRFTSTGSGTDYALTISSVQAEDLALYYCQQHYRSPWTFGGGTKLEIKR |  |  | 0.2 µg/mL |  | 0.06 µg/mL | 0.04 µg/mL
6 | MWTx-001 anti-TMPRSS6 antibody (antibody, V domains shown) VH: QVQLQQPGAELAKPGASVKMSCKASGYTFTSYWITWVKQRPGQDLEWIGNIYPGSGSTYYNEKFKSKATLTVDTSSRTAYMQLSSLTSADSAVYYCAPYDSDYAMDYWGQGTSVTVSS VL: DIKMTQSPSSMYASLGERVTITCKASQDINNYLSWFQQKPGKSPKTLIYRANRLVDGVPSRVSGSGSGQDYSLTISSLEYEDVGIYFCLQYDEFPLTFGAGTKLELKR |  |  | 1 µg/mL | 0.25 µg/mL | 0.1 µg/mL | 0.2 µg/mL
